In publication PMC128837 (BMC Biochemistry, 2002):

Biological target: T1, HA-Pop1p/His-Myc-Pop2p complexes (S. pombe, UniProt P87060 1-775; O14170 1-703)
T1 sequence 1: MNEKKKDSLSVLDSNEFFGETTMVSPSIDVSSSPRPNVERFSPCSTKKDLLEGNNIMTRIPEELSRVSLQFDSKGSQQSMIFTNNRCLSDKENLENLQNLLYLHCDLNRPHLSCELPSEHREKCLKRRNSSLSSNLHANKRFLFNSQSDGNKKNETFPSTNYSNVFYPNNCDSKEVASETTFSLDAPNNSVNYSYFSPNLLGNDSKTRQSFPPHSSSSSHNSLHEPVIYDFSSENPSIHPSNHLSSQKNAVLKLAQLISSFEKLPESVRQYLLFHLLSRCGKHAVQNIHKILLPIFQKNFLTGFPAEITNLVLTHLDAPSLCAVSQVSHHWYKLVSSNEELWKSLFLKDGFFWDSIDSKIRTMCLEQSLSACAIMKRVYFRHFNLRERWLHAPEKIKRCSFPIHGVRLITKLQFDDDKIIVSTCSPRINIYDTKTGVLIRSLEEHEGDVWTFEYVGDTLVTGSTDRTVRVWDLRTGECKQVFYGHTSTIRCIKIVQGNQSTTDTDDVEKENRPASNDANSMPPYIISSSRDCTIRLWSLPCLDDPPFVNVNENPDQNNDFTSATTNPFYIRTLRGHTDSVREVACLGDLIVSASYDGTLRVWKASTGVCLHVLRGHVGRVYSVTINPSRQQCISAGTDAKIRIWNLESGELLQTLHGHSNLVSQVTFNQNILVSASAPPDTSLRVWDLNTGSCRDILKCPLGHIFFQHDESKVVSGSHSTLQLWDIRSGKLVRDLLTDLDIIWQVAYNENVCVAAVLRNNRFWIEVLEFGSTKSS
T1 sequence 2: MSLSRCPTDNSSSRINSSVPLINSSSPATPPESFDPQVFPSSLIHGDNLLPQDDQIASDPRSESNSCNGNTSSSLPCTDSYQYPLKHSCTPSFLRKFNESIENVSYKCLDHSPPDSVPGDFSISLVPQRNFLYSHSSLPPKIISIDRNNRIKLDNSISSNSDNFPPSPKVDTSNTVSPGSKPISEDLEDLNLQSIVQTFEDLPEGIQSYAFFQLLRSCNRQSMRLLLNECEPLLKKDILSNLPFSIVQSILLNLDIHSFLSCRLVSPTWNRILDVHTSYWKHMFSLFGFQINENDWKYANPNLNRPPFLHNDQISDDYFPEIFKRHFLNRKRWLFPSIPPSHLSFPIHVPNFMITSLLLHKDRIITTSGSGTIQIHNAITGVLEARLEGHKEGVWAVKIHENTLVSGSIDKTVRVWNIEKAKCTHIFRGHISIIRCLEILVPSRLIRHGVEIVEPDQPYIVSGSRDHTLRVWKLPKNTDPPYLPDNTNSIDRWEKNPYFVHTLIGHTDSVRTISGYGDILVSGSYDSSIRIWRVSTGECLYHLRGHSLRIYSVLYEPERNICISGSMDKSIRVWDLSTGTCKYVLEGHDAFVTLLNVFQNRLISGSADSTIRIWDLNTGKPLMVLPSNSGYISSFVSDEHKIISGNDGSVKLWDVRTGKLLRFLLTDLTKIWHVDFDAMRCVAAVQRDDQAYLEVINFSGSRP
Assay: pull-down

B1: bacterially expressed, phosphorylated Rum1p (natural protein)
chain: MEPSTPPMRGLCTPSTPESPGSFKGVIDASLEGNSSIMIDEIPESDLPAPQVSTFPPTPAKTPKKQLLPNLMLQDRSNSLERCMEEDREHNPFLSSSDNQLLSRKKRKPTPPPSDGLYYVFRGKRIKKSFRPGTDLSTFKPKLLFADSAPSSSSDNPTSSVDLNDYSQIGILPPNLNSIGNKMFSLKSRVPSSSSGSFVAPPPQMRLPAYSSPQKSRSNTKDENRHNLLR
modifications: phosphorylated by Cdc2p/Cig1p complexes with radiolabeled ATP; residues not stated for this preparation
binding result: binds
